Where a chain is given by its changes, count along the chain named. Names may count otherwise. “Also recorded” adds a separate entry of the source.

One test deals with human GLP-1R R190A. In words: cAMP production at R190A mutant. The conditions noted are these: Figure S3. It counts as cell-based.
In test [1] the target is T1, human GLP-1R wildtype (Homo sapiens, UniProt P43220). In words: cAMP accumulation. The conditions noted are these: normalized to forskolin; n=3, duplicate; Figure S7. It counts as cell-based. (cAMP levels reflect the balance of adenylyl cyclase and phosphodiesterase activity.)
Test [2] addresses T1, human GLP-1R wildtype. In words: ERK1/2 phosphorylation. Type of test: cell-based. The conditions noted are these: normalized to FBS; n=3, duplicate; Figure S7.
For another test, the target named is exendin-4, P26349. In words: radioligand inhibition binding (competition with 125I-exendin-4(9-39)). The conditions noted are these: chain shown with the change;; read off a plot.

T1 sequence (P43220 24-463): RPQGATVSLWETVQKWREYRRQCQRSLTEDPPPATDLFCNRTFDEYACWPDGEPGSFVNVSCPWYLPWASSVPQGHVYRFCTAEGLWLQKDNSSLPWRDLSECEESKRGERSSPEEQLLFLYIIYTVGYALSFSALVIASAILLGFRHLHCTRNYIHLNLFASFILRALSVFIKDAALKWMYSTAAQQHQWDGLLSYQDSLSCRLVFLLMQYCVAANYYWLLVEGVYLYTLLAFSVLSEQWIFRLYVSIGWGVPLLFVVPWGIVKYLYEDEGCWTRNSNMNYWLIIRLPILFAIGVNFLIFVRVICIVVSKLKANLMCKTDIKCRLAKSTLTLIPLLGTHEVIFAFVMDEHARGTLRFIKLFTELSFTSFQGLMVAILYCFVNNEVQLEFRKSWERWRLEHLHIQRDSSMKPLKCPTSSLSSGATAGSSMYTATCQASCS
Protocol for human GLP-1R R190A: For cAMP assays, cells were stimulated for 30 min in the presence of the phosphodiesterase inhibitor IBMX and then lysed.
Dulbecco’s Modified Eagle’s Medium (DMEM) and Fluo-4 AM were purchased
from Invitrogen (Carlsbad, CA, USA). Foetal bovine serum (FBS) was purchased from Thermo
Electron Corporation (Melbourne, VIC, Australia). AlphaScreen reagents, 384-well opti and
proxiplates were purchased from PerkinElmer Life and Analytical Sciences (Waltham, MA, USA).
All other reagents were purchased from
Sigma-Aldrich (St. Louis, MO, USA) or BDH Merck (Melbourne, Vic, Australia) and were of an
Receptor mutagenesis. To study the influence of ECL amino acids, and R190 on receptor function,
the desired mutations were introduced to an N-terminally double c-myc labeled wild-type human GLP-
1R in the pEF5/FRT/V5-DEST destination vector (Invitrogen); this receptor had equivalent
Mutagenesis was carried out using oligonucleotides for
site-directed mutagenesis purchased from GeneWorks (HindMarsh, SA, Australia) and the
QuikChangeTM site-directed mutagenesis kit (Stratagene) and confirmed by automated sequencing
Cell culture: Stable transfections; Wild-type and mutant human GLP-1Rs were isogenically
integrated into FlpIn-Chinese hamster ovary (FlpInCHO) cells (Invitrogen) and selection of receptor-
expressing cells accomplished by treatment with 600 µg ml-1 hygromycin-B as previously described […]

In the case of “modified oxyntomodulin: oxyntomodulin with Q^3 substituted with E (HSEGTFTSDYSKYLDSRRAQDFVQWLMNTKRNRNNIA; Oxyntomodulin; UniProt P01275 53-89, looked up, variant Q3E)”, the “requirement of R190 for cAMP production” value in the test on human GLP-1R R190A was “required for cAMP production”.

For GLP-1(9-36)NH2, the cAMP response result at human GLP-1R wildtype [1] is recorded as “unable to activate the cAMP pathway; also recorded: unable to generate a cAMP response”. Further, at human GLP-1R wildtype [2], the pERK1/2 response entry is recorded as “can still promote pERK1/2; also recorded: maintains the ability to promote pERK1/2”.

B1: glucagon-like peptide 1 receptor (GLP-1R), wild-type, P43220 E292A (protein)
chain: RPQGATVSLWETVQKWREYRRQCQRSLTEDPPPATDLFCNRTFDEYACWPDGEPGSFVNVSCPWYLPWASSVPQGHVYRFCTAEGLWLQKDNSSLPWRDLSECEESKRGERSSPEEQLLFLYIIYTVGYALSFSALVIASAILLGFRHLHCTRNYIHLNLFASFILRALSVFIKDAALKWMYSTAAQQHQWDGLLSYQDSLSCRLVFLLMQYCVAANYYWLLVEGVYLYTLLAFSVLSEQWIFRLYVSIGWGVPLLFVVPWGIVKYLYADEGCWTRNSNMNYWLIIRLPILFAIGVNFLIFVRVICIVVSKLKANLMCKTDIKCRLAKSTLTLIPLLGTHEVIFAFVMDEHARGTLRFIKLFTELSFTSFQGLMVAILYCFVNNEVQLEFRKSWERWRLEHLHIQRDSSMKPLKCPTSSLSSGATAGSSMYTATCQASCS
As to B1, the log10 ratio in the test with exendin-4, P26349 was -1.8 ΔpKi.

B2: glucagon-like peptide 1 receptor (GLP-1R), wild-type, P43220 I286A (protein)
chain: B1 chain with I263A, A269E
Turning to B2, the log10 ratio in the test with exendin-4, P26349 is -0.3 ΔpKi.

B3: glucagon-like peptide 1 receptor (GLP-1R), wild-type, P43220 I382A (protein)
chain: B1 chain with A269E, I359A
As for B3, the log10 ratio in the test with exendin-4, P26349 was -0.15 ΔpKi.

B4: glucagon-like peptide 1 receptor (GLP-1R), wild-type, P43220 K288A (protein)
chain: B1 chain with K265A, A269E
As to B4, the log10 ratio with exendin-4, P26349 was -1.9 ΔpKi.

B5: glucagon-like peptide 1 receptor (GLP-1R), wild-type, P43220 N300A (protein)
chain: B1 chain with A269E, N277A
B5: the log10 ratio with exendin-4, P26349 was -1.8 ΔpKi.

B6: glucagon-like peptide 1 receptor (GLP-1R), wild-type, P43220 G295A (protein)
chain: B1 chain with A269E, G272A
Turning to B6, the log10 ratio in the test with exendin-4, P26349 was -0.1 ΔpKi.

B7: glucagon-like peptide 1 receptor (GLP-1R), wild-type, P43220 F381A (protein)
chain: B1 chain with A269E, F358A
Turning to B7, the log10 ratio in the test with exendin-4, P26349 was -0.35 ΔpKi.

B8: glucagon-like peptide 1 receptor (GLP-1R), wild-type, P43220 Y220A (protein)
chain: B1 chain with Y197A, A269E
In the case of B8, the log10 ratio in the test with exendin-4, P26349 is 0.1 ΔpKi.

B9: glucagon-like peptide 1 receptor (GLP-1R), wild-type, P43220 Q211A (protein)
chain: B1 chain with Q188A, A269E
Consider B9, for which the log10 ratio with exendin-4, P26349 is -0.2 ΔpKi.

B10: glucagon-like peptide 1 receptor (GLP-1R), wild-type, P43220 W203A (protein)
chain: B1 chain with W180A, A269E
Take B10: in the test with exendin-4, P26349, the log10 ratio was -0.15 ΔpKi.

B11: glucagon-like peptide 1 receptor (GLP-1R), wild-type, P43220 W297A (protein)
chain: B1 chain with A269E, W274A
B11: the log10 ratio with exendin-4, P26349 is -1.8 ΔpKi.

B12: glucagon-like peptide 1 receptor (GLP-1R), wild-type, P43220 R380A (protein)
chain: B1 chain with A269E, R357A
Regarding B12, in the test with exendin-4, P26349, the log10 ratio was -1.5 ΔpKi.

B13: glucagon-like peptide 1 receptor (GLP-1R), wild-type, P43220 E387A (protein)
chain: B1 chain with A269E, E364A
Regarding B13, in the test with exendin-4, P26349, the log10 ratio is -0.4 ΔpKi.

B14: glucagon-like peptide 1 receptor (GLP-1R), wild-type, P43220 Y305A (protein)
chain: B1 chain with A269E, Y282A
With B14, the log10 ratio in the test with exendin-4, P26349 was -1.7 ΔpKi.

B15: glucagon-like peptide 1 receptor (GLP-1R), wild-type, P43220 M204A (protein)
chain: B1 chain with M181A, A269E
Turning to B15, the log10 ratio with exendin-4, P26349 was -0.75 ΔpKi.

B16: glucagon-like peptide 1 receptor (GLP-1R), wild-type, P43220 T207A (protein)
chain: B1 chain with T184A, A269E
As to B16, in the test with exendin-4, P26349, the log10 ratio is -0.2 ΔpKi.

B17: glucagon-like peptide 1 receptor (GLP-1R), wild-type, P43220 K202A (protein)
chain: B1 chain with K179A, A269E
On to B17, for which the log10 ratio with exendin-4, P26349 is -0.25 ΔpKi.

B18: glucagon-like peptide 1 receptor (GLP-1R), wild-type, P43220 D372A (protein)
chain: B1 chain with A269E, D349A
As for B18, the log10 ratio with exendin-4, P26349 was -1.1 ΔpKi.

B19: glucagon-like peptide 1 receptor (GLP-1R), wild-type, P43220 D222A (protein)
chain: B1 chain with D199A, A269E
As to B19, the log10 ratio with exendin-4, P26349 is -0.25 ΔpKi.

B20: glucagon-like peptide 1 receptor (GLP-1R), wild-type, P43220 K383A (protein)
chain: B1 chain with A269E, K360A
For the molecule B20, the log10 ratio with exendin-4, P26349 is -1.1 ΔpKi.

B21: glucagon-like peptide 1 receptor (GLP-1R), wild-type, P43220 H212A (protein)
chain: B1 chain with H189A, A269E
Turning to B21, the log10 ratio in the test with exendin-4, P26349 is 0.3 ΔpKi.

B22: glucagon-like peptide 1 receptor (GLP-1R), wild-type, P43220 E294A (protein)
chain: B1 chain with A269E, E271A
With B22, the log10 ratio with exendin-4, P26349 is 0.1 ΔpKi.

B23: glucagon-like peptide 1 receptor (GLP-1R), wild-type, P43220 N304A (protein)
chain: B1 chain with A269E, N281A
Consider B23, for which the log10 ratio in the test with exendin-4, P26349 is -0.4 ΔpKi.

B24: glucagon-like peptide 1 receptor (GLP-1R), wild-type, P43220 G285A (protein)
chain: B1 chain with G262A, A269E
As for B24, the log10 ratio with exendin-4, P26349 is -0.1 ΔpKi.

B25: glucagon-like peptide 1 receptor (GLP-1R), wild-type, P43220 N302A (protein)
chain: B1 chain with A269E, N279A
Regarding B25, in the test with exendin-4, P26349, the log10 ratio is -1.2 ΔpKi.

B26: glucagon-like peptide 1 receptor (GLP-1R), wild-type, P43220 M303A (protein)
chain: B1 chain with A269E, M280A
For the molecule B26, in the test with exendin-4, P26349, the log10 ratio was -0.7 ΔpKi.

B27: glucagon-like peptide 1 receptor (GLP-1R), wild-type, P43220 L218A (protein)
chain: B1 chain with L195A, A269E
Consider B27, for which the log10 ratio with exendin-4, P26349 is -0.95 ΔpKi.

B28: glucagon-like peptide 1 receptor (GLP-1R), wild-type, P43220 D293A (protein)
chain: B1 chain with A269E, D270A
Consider B28, for which the log10 ratio with exendin-4, P26349 is -1.1 ΔpKi.

B29: glucagon-like peptide 1 receptor (GLP-1R), wild-type, P43220 S206A (protein)
chain: B1 chain with S183A, A269E
B29: the log10 ratio in the test with exendin-4, P26349 is -0.2 ΔpKi.

B30: glucagon-like peptide 1 receptor (GLP-1R), wild-type, P43220 S219A (protein)
chain: B1 chain with S196A, A269E
Consider B30, for which, in the test with exendin-4, P26349, the log10 ratio was -0.15 ΔpKi.

B31: glucagon-like peptide 1 receptor (GLP-1R), wild-type, P43220 H374A (protein)
chain: B1 chain with A269E, H351A
Regarding B31, the log10 ratio in the test with exendin-4, P26349 is -0.35 ΔpKi.

B32: glucagon-like peptide 1 receptor (GLP-1R), wild-type, P43220 V287A (protein)
chain: B1 chain with V264A, A269E
B32: the log10 ratio with exendin-4, P26349 was -0.25 ΔpKi.

B33: glucagon-like peptide 1 receptor (GLP-1R), wild-type, P43220 L307A (protein)
chain: B1 chain with A269E, L284A
B33: the log10 ratio with exendin-4, P26349 is -0.8 ΔpKi.

B34: glucagon-like peptide 1 receptor (GLP-1R), wild-type, P43220 L290A (protein)
chain: B1 chain with L267A, A269E
For the molecule B34, the log10 ratio with exendin-4, P26349 is -0.4 ΔpKi.

B35: glucagon-like peptide 1 receptor (GLP-1R), wild-type, P43220 L201A (protein)
chain: B1 chain with L178A, A269E
As for B35, in the test with exendin-4, P26349, the log10 ratio was -0.3 ΔpKi.

B36: glucagon-like peptide 1 receptor (GLP-1R), wild-type, P43220 S223A (protein)
chain: B1 chain with S200A, A269E
For the molecule B36, in the test with exendin-4, P26349, the log10 ratio is -0.4 ΔpKi.

B37: glucagon-like peptide 1 receptor (GLP-1R), wild-type, P43220 Y205A (protein)
chain: B1 chain with Y182A, A269E
For B37, in the test with exendin-4, P26349, the log10 ratio was -0.5 ΔpKi.

B38: glucagon-like peptide 1 receptor (GLP-1R), wild-type, P43220 T298A (protein)
chain: B1 chain with A269E, T275A
For the molecule B38, the log10 ratio with exendin-4, P26349 is -0.1 ΔpKi.

B39: glucagon-like peptide 1 receptor (GLP-1R), wild-type, P43220 T386A (protein)
chain: B1 chain with A269E, T363A
Regarding B39, in the test with exendin-4, P26349, the log10 ratio was -0.55 ΔpKi.

B40: glucagon-like peptide 1 receptor (GLP-1R), wild-type, P43220 Q213A (protein)
chain: B1 chain with Q190A, A269E
Consider B40, for which the log10 ratio in the test with exendin-4, P26349 is -0.15 ΔpKi.

B41: glucagon-like peptide 1 receptor (GLP-1R), wild-type, P43220 Q221A (protein)
chain: B1 chain with Q198A, A269E
Take B41: the log10 ratio with exendin-4, P26349 was -0.2 ΔpKi.

B42: glucagon-like peptide 1 receptor (GLP-1R), wild-type, P43220 Y291A (protein)
chain: B1 chain with Y268A, A269E
B42: in the test with exendin-4, P26349, the log10 ratio is -0.45 ΔpKi.

B43: glucagon-like peptide 1 receptor (GLP-1R), wild-type, P43220 Q210A (protein)
chain: B1 chain with Q187A, A269E
Consider B43, for which the log10 ratio in the test with exendin-4, P26349 was -0.25 ΔpKi.

B44: glucagon-like peptide 1 receptor (GLP-1R), wild-type, P43220 D215A (protein)
chain: B1 chain with D192A, A269E
In the case of B44, the log10 ratio in the test with exendin-4, P26349 was -0.25 ΔpKi.

(Values after publication PMC4912689, “The Extracellular Surface of the GLP-1 Receptor Is a Molecular Trigger for Biased Agonism” (Cell, 2016).)
